Experimental data: patent US20260241035A1, “FUNCTIONAL NUCLEIC ACID MOLECULE AND METHOD” (THE UNIVERSITY COURT OF THE UNIVERSITY OF EDINBURGH, priority 2022, published 2026)

Experiments:
in vitro = assay type: cell-based, human; conditions: human; ganciclovir alone, GSC7; read-out: viability (MTT)
Experimental: (§1) On the day of cell seeding, cells were detached using above described method. Cells were counted using hemocytometer and seeded into either 96-(1,000 cells per well in 50 μL), 24-(30,000 cells per well in 500 μL) or 6-well (60,000 cells per well in 2 mL) Corning plate and placed into incubator at 37° C./5% CO2. The next day, AAV virus stocks were thawed at room temperature and an appropriate amount of virus stock was added to required amount of culture media to achieve final multiplicity of infection (MOI) of 5×10^5. Culture media containing viral particles was added to cells without replacement of existing media. Cells were returned to 37° C./5% CO2.
(§2) Lyophilised GCV was diluted in DMSO to achieve 100 mM stock concentration. GCV stocks were aliquoted and were stored at −20° C. for no longer than 1 month. […]
(§3) To track cell proliferation and morphological changes during treatments, cells were monitored using the Incucyte live-cell imaging system. […]
(§4) On the day of assay culture media was replaced with 0.3 mg/mL MTT solution (diluted in cell line-appropriate culture media). […] Before reading the plate, each well was visually inspected to make sure that all (formazan) crystals were dissolved. Plate was read with plate reader at 560 nm absorbance.

GSC7 cells [1] = assay: in vitro; assay type: cell-based, human; conditions: ganciclovir alone, no virus
Experimental: as §1, §2, §3, §4

GSC7 cells [2] = assay: Nano-Glo Dual-Luciferase Reporter (Nanoglo DLR) assay of enhancer activity, fold change to mCMV; assay type: cell-based, human; conditions: for activity compared with CMV, Nanoglo DLR assay: GSC7
In short: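 160 bp enhancer fragments in NanoLuc reporter plasmids were co-transfected 1:10 with PGK-firefly luciferase into GSC7 cells using Lipofectamine LTX/Plus and read two days later. NanoLuc signal was normalised to firefly, then expressed as fold change to the empty mCMV vector.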

GSC7 cells [3] = assay: Flow cytometry of mNGreen reporter in GSC7; assay type: cell-based, human
Experimental: Cells were seeded at the required density. The following day the transfection was carried out. […] Following this step, the Plus reagent/Optimem premix was added to all DNA samples followed by the Lipofectamine LTX/Optimem premix. The transfection mix was incubated for 5 min at room temperature and then carefully dropped on the cells. Generally, no media change was carried out. Cells were analysed two days following transfection.
For flow cytometry, cells were detached, pelleted and resuspended in an appropriate volume of flow cytometry buffer (1% BSA in PBS, v/v). Cells were stained with Draq7 (Abcam, ab109202, f.c. 0.1 μM) as a live/dead stain and analysed using the BD LSRFortessa cell analyser (4 lasers, BD Bioscience).

SOX9 = target: T1, SOX9 (Homo sapiens, UniProt P48436); assay: Biotinylated enhancer pull down from nuclear extract, SOX9 detection; assay type: binding; conditions: random DNA 599 as negative control
T1 construct: These dsDNA fragments were incubated with nuclear extract from GSC7 and GSC328; endogenous in cells; host or cells: nuclear extract of GSC7 and/or GSC328 (patient-derived glioblastoma stem cell lines)
T1 sequence (P48436 1-509): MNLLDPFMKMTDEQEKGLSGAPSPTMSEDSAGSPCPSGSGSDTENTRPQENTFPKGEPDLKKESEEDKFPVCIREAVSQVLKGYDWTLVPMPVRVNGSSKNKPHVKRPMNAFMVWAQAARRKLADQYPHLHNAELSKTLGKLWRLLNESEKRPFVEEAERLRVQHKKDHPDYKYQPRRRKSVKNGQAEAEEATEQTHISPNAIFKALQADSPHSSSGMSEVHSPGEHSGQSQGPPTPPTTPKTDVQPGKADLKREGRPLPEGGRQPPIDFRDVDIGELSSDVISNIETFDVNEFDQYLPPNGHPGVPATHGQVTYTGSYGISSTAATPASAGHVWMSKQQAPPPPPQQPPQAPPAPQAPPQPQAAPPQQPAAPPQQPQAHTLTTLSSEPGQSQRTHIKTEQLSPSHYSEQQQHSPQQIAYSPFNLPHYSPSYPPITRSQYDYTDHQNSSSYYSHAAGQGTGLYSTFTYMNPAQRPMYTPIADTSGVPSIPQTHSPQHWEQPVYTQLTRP
Experimental: The oligo was PCR-amplified using biotinylated primers. The PCR product was then SPRI purified to remove biotinylated primer dimers. These dsDNA fragments were incubated with nuclear extract from GSC7 and GSC328. They were then bound to streptavidin magnetic beads, washed three times and the frozen beads were sent for mass spectrometry analysis.
All the buffers were prepared the day before, passed through a 22 μm filter (except the dialysis buffer) and left at 4° C. overnight. DTT and protease inhibitors were added just before use. […] The cell suspension was transferred to a glass Dounce homogenizer and dounced 40 times on ice. […] Dialysis buffer was changed (500 ml) and the dialysis was continued overnight at 4° C. The extract was collected in an 1.5 ml tube and spun at maximum speed for 15 min at 4° C. […] 100 μg aliquots were flash frozen in liquid nitrogen and stored at −80° C.
Enhancers were amplified with 5′ biotinylated primers (Table 5) using PrimeStar Max (Takara) according to the manufacturer's instructions.
Streptavidin Magnetic Bead (NEB, S1420S) were used according to the manufacturer's instructions. […]
Next, we aimed to confirm that indeed SOX2 and SOX9 are binding to the enhancer and the SOX dimer motif. […] To filter for transcription factors a list of all transcription factors was obtained from UniProt and overlapped with the detected proteins in both cell lines.

GSC328 cells = assay: Flow cytometry of mNGreen reporter in GSC328; assay type: cell-based, human
Experimental: Cells were seeded at the required density. The following day the transfection was carried out. For this the Plus reagent and Lipofectamine LTX (Life Technologies, 15338030) were each diluted in half the volume of Opti-MEM I Reduced-Serum Medium (further referred to as Optimem) (Life Technologies, 31985062). Following this step, the Plus reagent/Optimem premix was added to all DNA samples followed by the Lipofectamine LTX/Optimem premix. The transfection mix was incubated for 5 min at room temperature and then carefully dropped on the cells. Generally, no media change was carried out. Cells were analysed two days following transfection.
For flow cytometry, cells were detached, pelleted and resuspended in an appropriate volume of flow cytometry buffer (1% BSA in PBS, v/v). Cells were stained with Draq7 (Abcam, ab109202, f.c. 0.1 μM) as a live/dead stain and analysed using the BD LSRFortessa cell analyser (4 lasers, BD Bioscience). Analysis of flow cytometry data was carried out in the FlowJo Analysis software (FlowJo, version 10.6.2).

Nc1nc(O)c2ncn(COC(CO)CO)c2n1 [ganciclovir]
viability at 200 μM (in vitro): 89% | cell confluence (GSC7 cells [1]): No significant negative effect on cell confluence

B1: SSE-3: synthetic super-enhancer ID0876_ID2339_ID1737_ID0663, SEQ ID NO: 66 (nucleic acid)
DNA: GAGCAGGCAGTCATTTGGTTCCCTTCTCTGAATGCATTGGCTCTGATCCACGGCGCCTCAGGAAGTGAAAGGGAGCAGGCAGTGAGGCCAAGCCATGAATGTTGGGCCCTTTTCTTAGAAAACAAAGGGTTCACTTTAGGCTAGGAGGAAACATCCGGGGGTCGGCGGAACTGAGTCTCCTTTGTGGAGCCCCTCATTTGCATGATAAACCCCGGGGACAAAGTGTGTTCTTGTTACTTGGACTGTTTCTTGGAAACTGCTGCTACCTGGAGCGAGTGAACACAGGGCAAGTATTCTCGCCCACAGCAACGTGTCATTGACAACGTTTTTGGCAGATGCAGCTCTTTCTGAACAGTAAGTCATTGTTGAGTGACATGAATAGGACGAGAGCTACAGAAAATGAAGGTTTCAAAAGATTGTCTAAAACAAAAGTCCTTTCAGTCCCGTATTCAGAGTTATAAATTCCGATTAGCCAAGGAAGCTCTGAGTCTAAATACCAGCAAAGCTCAGCCCCTGCAAGTGGGGACGAATTATTTGAAAGGTCATCCTAGAGACACTGAACAAAGGGCCTCTAGCAGCT
activity compared with CMV, Nanoglo DLR assay (GSC7 cells [2]): higher than CMV | expression level compared with positive control CMV, flow cytometry (GSC7 cells [3]): higher than CMV

B2: SSE-5: synthetic super-enhancer ID2706_ID3547_ID3548_ID3146, SEQ ID NO: 68 (nucleic acid)
DNA: CCAATGCCAAAGCAGTTTACATTTTACAGATGCCATGGCAACCGTCAGGAAGTTACCCTGTATGGTCTAAGAGGGGGAGGAACCCTCAGTTCCGGGAATTGCCCGCCCCTTTCCCGGAAACTCATGAATAATCCACCCCGTTCCCCCTTAACAAAAGCCACCTCCTCCCTCCTGAAAGGCACCATTGGTCACCAAAACAAGTCCCCTTTGTCCTCCACCGCAGCTGGAGCCTGGGCCTTCCATCTCCTGGGGGCCAATAAAACCCCAGATCAGCCAATCCTCCCTCCCTGGCTCTGTCATCCAAACACTCCCCTGCAACAGATGTACACACAGAGCCCATTGTTTTCTCTAGAAATGTAAACTGCACGTCACAGTTACTCCATACACACCACAAACAGACTCCCTTTGTTCTCAGGATATGTGTTGACACAAGAATATGTCATCCTCTCAGCTCCAGACTGAAAGAGATGGGTGTGTGGGAGTGGGGGAAGCTGAGCTCCAGGCAGACAGCACAGAGCCGCCTTGTCCAACCCAGCCAGGTGCCATGGCAACCAACAAAGGCCCCATTGTCCCGTGTCTGCTGGGCCTTCCTGAGGCTCTGGGGTCAGAGTCCCGGTT
activity compared with CMV, Nanoglo DLR assay (GSC7 cells [2]): higher than CMV | expression level compared with positive control CMV, flow cytometry (GSC7 cells [3]): higher than CMV | fluorescence intensity compared with CMV (GSC7 cells [3]): higher intensity than CMV

B3: ID2904: enhancer fragment, SEQ ID NO: 5 (nucleic acid)
DNA: TGCATGTTCTTGGGAAAAAGTGGTATTTAATGAAGGCGCTTTGAGCTGAATCAAAGAGCCTCATTCTTCTGAAAGTCCTTCTTCCTAGTCTCTGCATCCGGCTCCTATCAAAGGAAATCCACAGCTTTGGCTTTTCGTTGCTGTTGTCATGGAAATCGTT
SOX9 interaction (SOX9): selectively interacts | Fold change (Median) (GSC7 cells [2]; expression fold change of the individual enhancer compared to mCMV): 251.6 fold

B4: SSE-6: synthetic super-enhancer ID3548_ID3146_ID4310_ID4428, SEQ ID NO: 69 (nucleic acid)
DNA: TCCAAACACTCCCCTGCAACAGATGTACACACAGAGCCCATTGTTTTCTCTAGAAATGTAAACTGCACGTCACAGTTACTCCATACACACCACAAACAGACTCCCTTTGTTCTCAGGATATGTGTTGACACAAGAATATGTCATCCTCTCAGCTCCAGACTGAAAGAGATGGGTGTGTGGGAGTGGGGGAAGCTGAGCTCCAGGCAGACAGCACAGAGCCGCCTTGTCCAACCCAGCCAGGTGCCATGGCAACCAACAAAGGCCCCATTGTCCCGTGTCTGCTGGGCCTTCCTGAGGCTCTGGGGTCAGAGTCCCGGTTTTGTCCTGCCTTTGAGAACACTGGAAGGGCACTGAAGGCTGACCAGCATGCACCTCACCCCACCTCCTCTCTGTCTCATCCTCAGCCATCTAAGCGGGAGACTCATCAGGCTTAAATTCTCATTCTTATCCAAGATTCTTCTGCTTCAAATGAGTCTAAATGGAGATCCTCCCATAAAGGGAGTTCTGTTTGGGCTTCCCTTGGAAGTCCATTGAAAGCGTTTCACATTTCAATGCTTCTTTACATTCTCCTCTAGAATGAATCTGGAAGGGCCATTTCATTCCAGCCCTATCAGATTTACTACTTCCTCCTGT
mean fluorescence intensity (MFI) compared with CMV (GSC328 cells): clearly less intense than CMV
